Data reported in US20250381277A1, “COMPOSITIONS AND METHODS FOR TREATMENT OF NEUROLOGICAL DISORDERS” (Dana-Farber Cancer Institute, Inc., priority 2022, published 2025).
Each block holds one compound with its values, some of them ahead of it.

How the values were obtained:
CD11c^− microglia = assay: Apoptotic neuron (AN) uptake and CD11c^- to CD11c^+ differentiation of microglia with αVβ3 / TAM receptor inhibitors; assay type: cell-based, mouse; conditions: P5 B6-WT CD11c^− microglia, 72 h with pHrodo-labeled ANs 1:1; cilengitide 10 μM, LDC1267 1 μM
Source text: (A) Brain single cell suspensions of 9-mo old WT mice were generated for validation of microglial CD11c expression by flow cytometry. We first gate on CD11b^+ cells from single/live cells followed by subsequent gating of CD11b^+CD45^low populations as potential microglia. […] In contrast, CCR2 but not Tmem 119 expression is detected in the CD11b^+CD45^high fraction, i.e., putative macrophage populations. Analysis of the CD11b^+CD45^low microglial population using FMO negative controls for these FACS plots confirms specificity. […] (B) The proportion of CD11c^+ microglia in C57BL/6 (B6) mice during early development and normal aging (n=3) was determined by flow cytometry analysis. CD11c^+ microglia were initially present at late embryonic day (E18.5), peaked at early postanal day (P5) and gradually declined to marginal levels in young adulthood (3-mon) followed by re-emergence and further expansion during aging. (C) CD11c^− microglia were isolated from P5 B6-WT mice by negative section with anti-CD11c magnetic beads (purity >99%) followed by co-incubation×72 h in the presence or absence of pHrodo fluorescent dye-labeled apoptotic neurons (ANs) at a 1:1 ratio. After 72 h incubation, 23% of total CD11c^− microglia had ingested ANs (AN^+), of which 77.4% of these AN^+ microglia were CD11c^+. […] Expression of CD11c was assessed in CD86^+ or MHC II^+ activated microglia. […]

[1] = molecular target: CD11b on microglia from 5XFAD mice (mouse) (UniProt P05555); assay: flow cytometry, AF488-CD11b fluorescence, microglia from 5XFAD mice; isotype control histogram (top trace) [B]
Chain of UniProt P05555 (P05555 17-1153): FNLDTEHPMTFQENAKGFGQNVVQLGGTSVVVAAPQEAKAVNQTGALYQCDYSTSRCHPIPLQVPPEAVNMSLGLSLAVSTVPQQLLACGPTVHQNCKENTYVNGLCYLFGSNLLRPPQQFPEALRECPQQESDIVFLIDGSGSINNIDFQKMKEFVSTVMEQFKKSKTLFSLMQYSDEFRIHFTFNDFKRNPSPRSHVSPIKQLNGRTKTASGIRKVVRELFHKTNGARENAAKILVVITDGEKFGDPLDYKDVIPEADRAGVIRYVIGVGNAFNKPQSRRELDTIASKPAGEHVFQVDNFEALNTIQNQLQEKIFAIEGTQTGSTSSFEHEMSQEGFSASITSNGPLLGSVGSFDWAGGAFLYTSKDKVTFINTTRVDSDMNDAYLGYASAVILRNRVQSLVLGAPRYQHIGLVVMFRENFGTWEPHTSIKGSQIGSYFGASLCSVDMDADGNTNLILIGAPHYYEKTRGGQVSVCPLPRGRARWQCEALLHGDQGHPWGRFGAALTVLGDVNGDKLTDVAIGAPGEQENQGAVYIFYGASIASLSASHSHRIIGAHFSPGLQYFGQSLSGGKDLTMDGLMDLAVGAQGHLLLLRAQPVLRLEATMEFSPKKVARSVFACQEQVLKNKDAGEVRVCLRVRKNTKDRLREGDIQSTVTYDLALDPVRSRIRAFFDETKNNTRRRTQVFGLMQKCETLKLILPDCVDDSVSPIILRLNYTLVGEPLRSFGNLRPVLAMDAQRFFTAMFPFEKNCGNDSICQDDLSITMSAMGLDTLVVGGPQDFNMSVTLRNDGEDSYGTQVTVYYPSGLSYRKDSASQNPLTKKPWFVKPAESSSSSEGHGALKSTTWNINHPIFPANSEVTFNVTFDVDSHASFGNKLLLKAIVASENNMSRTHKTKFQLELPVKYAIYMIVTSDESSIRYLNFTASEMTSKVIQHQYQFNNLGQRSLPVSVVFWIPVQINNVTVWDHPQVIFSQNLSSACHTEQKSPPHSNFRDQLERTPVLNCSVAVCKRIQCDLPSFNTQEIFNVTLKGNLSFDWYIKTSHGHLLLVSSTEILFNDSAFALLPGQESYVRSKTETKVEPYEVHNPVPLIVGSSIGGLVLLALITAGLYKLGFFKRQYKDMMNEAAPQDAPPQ

[2] = molecular target: osteopontin (OPN) produced by mouse microglia (mouse) (UniProt P10923); assay: intracellular flow cytometry, SSC against OPN, microglia of 9-mo mice stained with the isotype control 1:10 (genotype of this panel not labelled)
Chain of UniProt P10923 (P10923 17-294 limits assumed): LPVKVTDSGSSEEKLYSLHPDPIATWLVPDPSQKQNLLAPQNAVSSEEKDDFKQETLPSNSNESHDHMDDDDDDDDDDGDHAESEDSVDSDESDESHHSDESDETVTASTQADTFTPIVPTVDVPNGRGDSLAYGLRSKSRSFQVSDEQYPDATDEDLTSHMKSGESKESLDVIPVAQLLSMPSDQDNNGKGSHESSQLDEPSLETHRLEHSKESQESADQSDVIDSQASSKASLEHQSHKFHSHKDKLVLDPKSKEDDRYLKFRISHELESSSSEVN

[3] = molecular target: osteopontin (OPN) produced by mouse microglia (mouse) (UniProt P10923); assay: intracellular flow cytometry, SSC against OPN, microglia stained with the isotype control (the legend says only 'Isotype control'; genotype of this panel not labelled) [b]

- reduction of AN uptake by CD11c^− microglia (CD11c^− microglia): about 50%
Compound: CCOc1cn(-c2ccc(F)cc2C)nc1C(=O)Nc1ccc(Oc2ccnc3cc(OC)c(OC)cc23)c(F)c1 [LDC1267]

- CD11b+ microglia (%) [1]: 0.4%
Compound: Isotype (antibody)

- number printed over the OPN+ gate (frequency of OPN+ microglia) [2]: 0.4%
- number printed in the OPN+ gate (frequency of OPN+ microglia) [3]: 0.25%
Compound: isotype control (PE-conjugated goat IgG) (antibody)
